B1: Pf41 D1D2 (residues 21-368), untagged [Plasmodium falciparum] / octa-histidine tagged Pf12 D1D2 (residues 28-304) [Plasmodium falciparum] (parent complex)
chain 1: KSHKCDFTKEKYLLSGEKEVSCEIDANPSDDITFICPNKIDSLCFHTVNISKNINQNKSTMSIQDLLYGSVVYGNTLFISPYVRTNTPFYCFCNLDTVTIQKFLKINRFLKDDDELSEADVMKHLKGGNVSEAQADEYLNKALNRFKKMKDLSKFFNDQADNTTKLNLPKSLNIPNDILNYDVYNSSNNRNDIVVKDEVTNKQIISKRGIMSVFVRSNNNVIKGCDFGNNNKNYFSHPISVAGKVNNKVCKIQGKPGELVGFKCAFEENGKVEPPNCFDQVLHKNKVTDLKTLIPGYASYTNKHSSKYPYYLKIPHFVNEQYTIQCKCKSNNSQNEYTFELDIQPGES
chain 2: NLTCDFNDVYKLEFHPNQQTSVTKLCNLTPNVLEKVTIKCGSDKLNYNLYPPTCFEEVYASRNMMHLKKIKEFVIGSSMFMRRSLTPNKINEVSFRIPPNMMPEKPIYCFCENKKTITINGSNGNPSSKKDIINRGIVEIIIPSLNEKVKGCDFTTSESTIFSKGYSINEISNKSSNNQQDIVCTVKAHANDLIGFKCPSNYSVEPHDCFVSAFNLSGKNENLENKLKLTNIIMDHYNNTFYSRLPSLISDNWKFFCVCSKDNEKKLVFTVEASISS
B2: Pf12 D1D2 (residues 28-304), untagged [Plasmodium falciparum] / octa-histidine tagged Pf41 D1D2 (residues 21-368) [Plasmodium falciparum] (parent complex)
chain 1: B1 chain 2
chain 2: B1 chain 1

Variants of: B1
Experiment: BLI; mutant at 1000 nM, 500 nM, and 250 nM; binding to immobilised WT Pf12; parent: 100; read off a plot

Which percent of parent does the source give for chain 1 F146L here?
The percent of parent was about 122 % WT.

Variants of: B2
Experiment: BLI; mutant at 1000 nM, 500 nM, and 250 nM; binding to immobilised WT Pf41; parent: 100; read off a plot

For chain 1 R96E, which percent of parent is on record?
The percent of parent was about 3 % WT.

Which percent of parent does the source give for chain 1 R96A here?
Its percent of parent is about 55 % WT.

How did the percent of parent turn out when chain 1 M79A was run?
The percent of parent was about 27 % WT.

For chain 1 F256A, which percent of parent is on record?
The percent of parent was about 4 % WT.

Which percent of parent does the source give for chain 1 H207A here?
Its percent of parent is about 116 % WT.

How did the percent of parent turn out when chain 1 R83A was run?
The percent of parent was about 38 % WT.

With chain 1 F214A as the variant, how does the percent of parent read?
Its percent of parent is about 12 % WT.

With chain 1 F214L as the variant, how does the percent of parent read?
Its percent of parent is about 67 % WT.

Which percent of parent does the source give for chain 1 M81A here?
The percent of parent was about 22 % WT.

How did the percent of parent turn out when chain 1 Y237A was run?
The percent of parent was about 2 % WT.

chain 1 R82E was tested. Which percent of parent did it give?
The percent of parent was about 0 % WT.

Which percent of parent does the source give for chain 1 R82A here?
The percent of parent was about 9 % WT.
